# From the supplement of paper PMC10724198
# ± gives the standard deviation of the averaged measurements.
# Test system: Saccharomyces cerevisiae
# Assay: protein stability index of tFT-peptide fusion (C-terminal peptide) (PSI (0-1 scale)); higher = more stable (slower turnover)
# Conditions: genetic background: wild type; temperature: 30 C
# Protocol: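 Multiplexed protein stability (MPS) profiling in S. cerevisiae. Random 12-aa peptides (tFT-X12 library) are fused to the C-terminus of a sfGFP-mCherry tandem fluorescent timer, after mCherry and a GGGS linker. Cells are FACS-sorted into 8 mCherry/sfGFP bins and deep-sequenced. The protein stability index (PSI) is the read-weighted bin average, scaled from 0 (unstable) to 1 (stable). Only peptides with >10 reads are reported; cells were grown at 30 °C in SC-His with glucose.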
# 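Note: PSI is a weighted mean of sequencing reads over stability bins, variants kept only with over 10 reads, mCherry proximal and sfGFP distal, peptide attached via GGGS linker.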
row,Sequence,protein stability index
1,DLSLQSLRSPIT,0.672 ± 0.022
2,KRILKEKRRKKN,0.658 ± 0.036
3,PPRALPPPLPLP,0.72 ± 0.083
4,PVPPPLSPLPTP,0.703 ± 0.11
5,FPCAPFLLLDVS,0.663 ± 0.0029
6,FPLSLCPHRPSL,0.716 ± 0.034
7,IMGRRGEDGVID,0.682 ± 0.061
8,PPAPPPCTPPPP,0.69493 ± 0.0002
9,CSEGSSFVDKRG,0.594 ± 0.039
10,GGVCRARVAETV,0.674 ± 0.0074
11,LRDWCMLGELAR,0.742 ± 0.014
12,EGVCEIEMRGSR,0.788 ± 0.021
13,VLSYFFLFSCAS,0.502 ± 0.098
14,GRRPRRLNKDVQ,0.614 ± 0.025
15,VGLTGFSQLGDG,0.675 ± 0.032
16,AGYGGILRSRGG,0.698 ± 0.059
17,RHLESERAPLPG,0.688 ± 0.018
18,KKKKTQKKKTKQ,0.668 ± 0.019
19,KRSGEGREKIRK,0.703 ± 0.028
20,ANSGSRSSRVVG,0.643 ± 0.1
21,GSRARKARQPHG,0.582 ± 0.2
22,ARPDTSPPGTSL,0.664 ± 0.044
23,KKKKTEIKRNKT,0.689 ± 0.026
24,APPVAKHHAGKD,0.647 ± 0.016
25,KVVSGLKSGPVQ,0.677 ± 0.055

row,Sequence,protein stability index
1,WYSSSRDLSVSG,0.731 ± 0.0076
2,LISADTFVHFND,0.725 ± 0.02
3,LSDFFLDREGRV,0.654 ± 0.034
4,KTKKKNKKDQKM,0.6661 ± 0.0047
5,FSGSSFNGLCSF,0.701 ± 0.018
6,RPPAPVFPNFPG,0.708 ± 0.022
7,PRFSLFSTDHYY,0.679 ± 0.16
8,YYVGLHSFSILQ,0.729 ± 0.076
9,SLPSWPPAPLPG,0.703 ± 0.025
10,KKKKKKKRNKHN,0.706 ± 0.048
11,PGTATRAPQLIP,0.727 ± 0.033
12,RKKFKKQKKKNI,0.703 ± 0.073
13,KKKKKTKKKAEK,0.701 ± 0.022
14,WCECGVWGGLWG,0.719 ± 0.021
15,VALEFLGWVGLS,0.684 ± 0.094
16,RCLRGGMLGFGR,0.627 ± 0.052
17,ARPFCPLYTPRG,0.686 ± 0.043
18,DRGGDVGRCAGF,0.677 ± 0.011
19,PLPRHSSPLPHI,0.684 ± 0.0089
20,KKKKDQQQELKN,0.657 ± 0.032
21,FWPPLTNLCTLL,0.687 ± 0.011
22,YGGCGFEEEGVR,0.73 ± 0.02
23,GGSIGTELAAVI,0.682 ± 0.054
24,ATSPTSGGIHTA,0.662 ± 0.0092
25,WFAGRDRHRAND,0.745 ± 0.1

row,Sequence,protein stability index
1,RGLRIRFKKIDK,0.704 ± 0.078
2,EHRPCQGVMYII,0.522 ± 0.0026
3,PAPPRSLPPSSP,0.6536 ± 0.0058
4,RRADGASLNNSV,0.697 ± 0.028
5,KKKLKYKGIRTN,0.679 ± 0.049
6,LDQQKSCHLIFL,0.663 ± 0.033
7,SWGDVGSWLGGV,0.663 ± 0.0068
8,YFCCFIPFFFDC,0.663 ± 0.069
9,GGTPIGAHVLLR,0.661 ± 0.00077
10,KKARGYTLEQRR,0.736 ± 0.051
11,LGIRFPLSNELI,0.867 ± 0.15
12,LLTSCLLSCCFR,0.671 ± 0.027
13,VLLAGRLEEGGE,0.65 ± 0.087
14,PSCYDPCSPPPH,0.723 ± 0.047
15,ERGRKGGAGARD,0.6439 ± 0.0047
16,DLIYRLHTANWR,0.809 ± 0.034
17,FDFISHLYWSIV,0.582 ± 0.011
18,ALSRRPAAGDGP,0.641 ± 0.024
19,PPLPPPAPSFPT,0.684 ± 0.06
20,KKRTTKEKKQHK,0.693 ± 0.033
21,KKRKKKKQTKRK,0.691 ± 0.022
22,NFFGPAIFLRRR,0.678 ± 0.022
23,KKHEKVKSNTKR,0.666 ± 0.03
24,KKKKRKIPKKKK,0.635 ± 0.11
25,STLRFGVSLWLP,0.712 ± 0.03

row,Sequence,protein stability index
1,FVIPLLRWGRTP,0.663 ± 0.053
2,RQHYFDVLGEMY,0.7113 ± 0.0027
3,VLCIYKLSQVRL,0.654 ± 0.049
4,YLRSMIPKELAV,0.605 ± 0.023
5,AELSTRPPAPPL,0.715 ± 0.096
6,DWTNLTVITGDT,0.674 ± 0.035
7,ADLPALGSCGSY,0.631 ± 0.013
8,PPRPAPTSFKRG,0.718 ± 0.037
9,RCTLSSFIYFCP,0.601 ± 0.039
10,FAFWGGHSWLSC,0.791 ± 0.035
11,APFRVALPGVCG,0.623 ± 0.02
12,SRPPSPPLCHPA,0.736 ± 0.054
13,GGGGVWVSWCGW,0.679 ± 0.013
14,GWSSTLTFLGGA,0.701 ± 0.0078
15,VLRRCGRERGIF,0.688 ± 0.034
16,IRYEVVDLEPRG,0.693 ± 0.15
17,DGCRCQSMSKIS,0.553 ± 0.18
18,PDRPVISLLLPS,0.646 ± 0.079
19,GEVSSIVHIGPK,0.684 ± 0.03
20,PPLPPLPVPPTL,0.738 ± 0.11
21,KKKKQNKRKRKT,0.635 ± 0.0086
22,WFFPPLPPPLPR,0.686 ± 0.04
23,QGSSLLPLYFPD,0.622 ± 0.013
24,VLAPPPLLPPPY,0.6843 ± 0.0021
25,RSAPPPPPLRLD,0.789 ± 0.062

row,Sequence,protein stability index
1,VGGGAVRAWGLR,0.688 ± 0.028
2,ERLLMLSGLRRA,0.779 ± 0.1
3,SAGVTGREVFVG,0.631 ± 0.015
4,PPLTHPPPPLYL,0.694 ± 0.008
5,LLRDRRQETILK,0.623 ± 0.092
6,DQDAPNRPVDSS,0.695 ± 0.018
7,LETETKKPQNQK,0.724 ± 0.11
8,PIPPPPPLRPSS,0.69 ± 0.011
9,PALPPLPPPPPA,0.71 ± 0.016
10,EKKKNKTKKKTN,0.688 ± 0.056
11,PSFHASSLSWFS,0.745 ± 0.039
12,TQSPANIIQRKT,0.672 ± 0.024
13,DHLQGRPDITDI,0.72 ± 0.09
14,LRRVKSGPYFRF,0.684 ± 0.074
15,PPPPSTRPSYSP,0.756 ± 0.23
16,RAFVSDLPHPKS,0.704 ± 0.098
17,VLLLLLSLLFGV,0.5135 ± 0.0023
18,PPLPLPPPLLPP,0.659 ± 0.059
19,AQTEADGRAHDP,0.6344 ± 0.0058
20,FTYFLPPPALCS,0.521 ± 0.02
21,LSPLLSLPRCPT,0.7 ± 0.04
22,TWGLGVFSIMDC,0.633 ± 0.052
23,GGWRRDGSLCGA,0.733 ± 0.14
24,PASLSPAVPESS,0.719 ± 0.044
25,TRSGGNGYERVC,0.667 ± 0.03

row,Sequence,protein stability index
1,GKYHIFNPNPKA,0.685 ± 0.012
2,DSVFTKALEPAW,0.722 ± 0.04
3,VGVPFLVVGVGV,0.583 ± 0.00081
4,WAGQWCRGRAGG,0.728 ± 0.056
5,GNEKSSRLRSTT,0.644 ± 0.12
6,PPPPRPAPSAPY,0.676 ± 0.045
7,YWPPIRSILPQY,0.67 ± 0.033
8,YRVFTANYEYEQ,0.724 ± 0.023
9,PPPVLPPPPVSP,0.719 ± 0.03
10,KKKKTVHKKNRR,0.699 ± 0.022
11,PPSQLPPPPASD,0.746 ± 0.2
12,EDKVRGQGSRHN,0.722 ± 0.011
13,TVNHKHALQFAT,0.681 ± 0.091
14,PAYACLCGFGIA,0.62754 ± 0.00056
15,CAVLGGGGVWGA,0.596 ± 0.035
16,QYWIYTGLKSLS,0.598 ± 0.039
17,VLFSCLSLCWVF,0.6081 ± 0.005
18,RRAPTTATPARP,0.826 ± 0.14
19,VWLSRLVFLSPL,0.602 ± 0.0046
20,PHPSLPGPFPHP,0.7049 ± 0.0045
21,ARQPMHYRITGC,0.644 ± 0.063
22,GAGVCEQGLALA,0.649 ± 0.091
23,SRTVSLDYHFMS,0.7319 ± 0.00097
24,IQYGSSVRREGR,0.72 ± 0.22
25,LLAFRTVSVGVL,0.5212 ± 0.0014

row,Sequence,protein stability index
1,PPPPVPPLYLPP,0.684 ± 0.017
2,LLPSPLPPHPPP,0.637 ± 0.053
3,SPPSLRLPPPPA,0.772 ± 0.021
4,PAAPPLGFTRTD,0.7 ± 0.0095
5,PPVLAPCLPLTG,0.681 ± 0.067
6,RGGGAGAVQYRS,0.642 ± 0.014
7,GYMRMGLCVYSD,0.596 ± 0.092
8,GGARGLLRGLLG,0.755 ± 0.085
9,WVGLGMSLRRAA,0.564 ± 0.062
10,SSRGSSSPPPHF,0.709 ± 0.074
11,LPPPRPPASPSL,0.677 ± 0.033
12,KSKKRERDETKK,0.645 ± 0.033
13,GLLSKVEFEEYQ,0.655 ± 0.014
14,LFSFCQGCISFC,0.715 ± 0.02
15,DMGGLKACRGVG,0.5695 ± 0.0028
16,LGVFAVGGVRLG,0.668 ± 0.008
17,GGGGGRGGVVVR,0.682 ± 0.014
18,KAHSFAYVINCL,0.589 ± 0.045
19,EVEKKKKKKNNK,0.663 ± 0.04
20,CRAPSPRPWRPH,0.708 ± 0.062
21,ALLKGASCRTAS,0.696 ± 0.03
22,MCGENVSWSCRS,0.685 ± 0.038
23,VEGFVPEDGKEE,0.684 ± 0.024
24,CGPLPLVRSLLP,0.7031 ± 0.0023
25,RSGGYPGLLLFN,0.6227 ± 0.0053

row,Sequence,protein stability index
1,LCPLPPPTVPLP,0.742 ± 0.02
2,LKRGKIVDRGWY,0.641 ± 0.082
3,PAVSLPPPAPAS,0.721 ± 0.051
4,PRSPARPPFPTP,0.6835 ± 0.0049
5,TEGGSSKPSSNP,0.704 ± 0.089
6,STPPPHSPLPPP,0.689 ± 0.066
7,TKCSPLASRFSC,0.707 ± 0.016
8,KKKKEKKYKERY,0.721 ± 0.13
9,KKKKKKKKTNKK,0.762 ± 0.084
10,KKEEEGNREEKL,0.689 ± 0.038
11,GKNIINSKITYK,0.772 ± 0.043
12,DPDPNHATGKIC,0.616 ± 0.014
13,AGRRTGSRESEQ,0.612 ± 0.061
14,PLPPLLPPSPPP,0.767 ± 0.0085
15,VGVAREGQVGAA,0.694 ± 0.024
16,CLPLPAPLLAHL,0.666 ± 0.16
17,RKKREKKGRRGK,0.668 ± 0.0068
18,HLSNPRPPPPTR,0.703 ± 0.016
19,PCHPGASLRRRL,0.861 ± 0.067
20,ATSFHALPVFTS,0.644 ± 0.053
21,WGLGLYEENTGC,0.7468 ± 0.003
